Data on 24 variants can be found in the supplement of paper PMC7125110.

B1: glmS ribozyme (parent)
chain: AUAAAAGCGCCAGAACUACAGAAAUGUAGUUGACGAGGAGGAGGUUUAUCGAAUUUUCGGCGGAUGCCUCCAAA

Common to all, as to settings: with glucosamine-6-phosphate
In data set [1] the parent is B1. Nature of the data set: self-cleavage kobs at 160 uM GlcN6P; higher = faster cleavage; RNA array. An outline of the steps:
(§1)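 Tiles bearing barcoded ribozyme variants, transcribed in situ by E. coli RNA polymerase on sequenced MiSeq chips, were imaged over ~14 h at 37 °C using a hybridised Cy3 probe. Glucosamine-6-phosphate was supplied at 40 μM to 10 mM in HEPES/KCl/Mg(OAc)2 buffer. kobs came from one- or two-exponential decay fits to normalised per-tile medians, and weighted Michaelis–Menten fits then provided kcat and KM.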

The variants in data set [2] derive from B1. Briefly: self-cleavage kobs at 640 uM GlcN6P; higher = faster cleavage; RNA array. An outline of the steps: as §1
Data set [3] covers variants of B1. Nature of the data set: self-cleavage kobs at 2500 uM GlcN6P; higher = faster cleavage; RNA array. An outline of the steps: as §1
Data set [4] covers variants of B1. Briefly: self-cleavage kobs at 10000 uM GlcN6P; higher = faster cleavage; RNA array. The procedure, abridged:
as §1

In data set [5] the parent is B1. Nature of the data set: self-cleavage kobs at 40 uM GlcN6P; higher = faster cleavage; RNA array. The procedure, abridged:
as §1

± gives the standard error. This sample holds only a part of the variants without activity.

Take A42C U47C: in the data set with glucosamine-6-phosphate [1], the “self-cleavage kobs at 160 uM GlcN6P” value is below 1e-05 s⁻¹. Further, the “self-cleavage kobs at 640 uM GlcN6P” value in the data set with glucosamine-6-phosphate [2] is below 1e-05 s⁻¹. Besides, the “self-cleavage kobs at 2500 uM GlcN6P” value in the data set with glucosamine-6-phosphate [3] was below 1e-05 s⁻¹.

Turning to A36G A48G, the “self-cleavage kobs at 160 uM GlcN6P” value in the data set with glucosamine-6-phosphate [1] was below 1e-05 s⁻¹. Further, in the data set with glucosamine-6-phosphate [2], the “self-cleavage kobs at 640 uM GlcN6P” value is below 1e-05 s⁻¹. In the data set with glucosamine-6-phosphate [3], the “self-cleavage kobs at 2500 uM GlcN6P” value was below 1e-05 s⁻¹. Besides, the “self-cleavage kobs at 10000 uM GlcN6P” value with glucosamine-6-phosphate [4] is below 1e-05 s⁻¹.

For G7A C11A A52U C70A, the “self-cleavage kobs at 160 uM GlcN6P” value with glucosamine-6-phosphate [1] was below 1e-05 s⁻¹. Further, the “self-cleavage kobs at 640 uM GlcN6P” value in the data set with glucosamine-6-phosphate [2] was below 1e-05 s⁻¹. The “self-cleavage kobs at 2500 uM GlcN6P” value in the data set with glucosamine-6-phosphate [3] is below 1e-05 s⁻¹.

Turning to G13A G32C G43U A48G U69A, the “self-cleavage kobs at 40 uM GlcN6P” value with glucosamine-6-phosphate [5] is below 1e-05 s⁻¹.

As to A12C A14U G44U U45A, the “self-cleavage kobs at 160 uM GlcN6P” value with glucosamine-6-phosphate [1] is below 1e-05 s⁻¹.

In the case of G40A C71G, the “self-cleavage kobs at 40 uM GlcN6P” value in the data set with glucosamine-6-phosphate [5] was found to be 0.000326 ± 5.2e-05 s⁻¹. Also, in the data set with glucosamine-6-phosphate [1], the “self-cleavage kobs at 160 uM GlcN6P” value was found to be 0.00034 ± 0.00014 s⁻¹. Also, the “self-cleavage kobs at 640 uM GlcN6P” value with glucosamine-6-phosphate [2] was found to be 0.00161 ± 0.00038 s⁻¹. Besides, the “self-cleavage kobs at 2500 uM GlcN6P” value with glucosamine-6-phosphate [3] stood at 0.00373 ± 0.0013 s⁻¹. Besides, the “self-cleavage kobs at 10000 uM GlcN6P” value with glucosamine-6-phosphate [4] was 0.00695 ± 0.0013 s⁻¹.

As to C58U C68G, the “self-cleavage kobs at 160 uM GlcN6P” value with glucosamine-6-phosphate [1] amounted to 4.79e-05 ± 1.6e-05 s⁻¹. In addition, the “self-cleavage kobs at 640 uM GlcN6P” value in the data set with glucosamine-6-phosphate [2] was determined as 0.000137 ± 2.7e-05 s⁻¹. Moreover, the “self-cleavage kobs at 2500 uM GlcN6P” value with glucosamine-6-phosphate [3] came to 8.11e-05 ± 2e-05 s⁻¹.

Take C8A G38U: the “self-cleavage kobs at 160 uM GlcN6P” value in the data set with glucosamine-6-phosphate [1] is below 1e-05 s⁻¹. For the same variant, the “self-cleavage kobs at 2500 uM GlcN6P” value with glucosamine-6-phosphate [3] is below 1e-05 s⁻¹.

Turning to C8G G13C U30G C68G C70G, in the data set with glucosamine-6-phosphate [1], the “self-cleavage kobs at 160 uM GlcN6P” value is 0.000998 ± 0.00044 s⁻¹.

Turning to G9A G62C, the “self-cleavage kobs at 40 uM GlcN6P” value in the data set with glucosamine-6-phosphate [5] was below 1e-05 s⁻¹. Also, in the data set with glucosamine-6-phosphate [2], the “self-cleavage kobs at 640 uM GlcN6P” value was below 1e-05 s⁻¹. Also, the “self-cleavage kobs at 10000 uM GlcN6P” value with glucosamine-6-phosphate [4] was below 1e-05 s⁻¹.

As to A15U G32U G37A G62U, the “self-cleavage kobs at 160 uM GlcN6P” value in the data set with glucosamine-6-phosphate [1] is below 1e-05 s⁻¹.

On to A48U G63C, for which the “self-cleavage kobs at 40 uM GlcN6P” value with glucosamine-6-phosphate [5] is below 1e-05 s⁻¹. Besides, the “self-cleavage kobs at 160 uM GlcN6P” value with glucosamine-6-phosphate [1] was below 1e-05 s⁻¹. In addition, in the data set with glucosamine-6-phosphate [2], the “self-cleavage kobs at 640 uM GlcN6P” value was below 1e-05 s⁻¹. Besides, in the data set with glucosamine-6-phosphate [3], the “self-cleavage kobs at 2500 uM GlcN6P” value is below 1e-05 s⁻¹. The “self-cleavage kobs at 10000 uM GlcN6P” value with glucosamine-6-phosphate [4] was below 1e-05 s⁻¹.

A6G A33G G60C: the “self-cleavage kobs at 160 uM GlcN6P” value with glucosamine-6-phosphate [1] is below 1e-05 s⁻¹. Moreover, the “self-cleavage kobs at 640 uM GlcN6P” value with glucosamine-6-phosphate [2] was below 1e-05 s⁻¹.

Consider A12U G29A G41A C50A C67A, for which the “self-cleavage kobs at 40 uM GlcN6P” value with glucosamine-6-phosphate [5] was below 1e-05 s⁻¹.

Turning to C10A G40C, the “self-cleavage kobs at 40 uM GlcN6P” value with glucosamine-6-phosphate [5] was below 1e-05 s⁻¹. The “self-cleavage kobs at 160 uM GlcN6P” value with glucosamine-6-phosphate [1] was below 1e-05 s⁻¹. Also, the “self-cleavage kobs at 640 uM GlcN6P” value with glucosamine-6-phosphate [2] was below 1e-05 s⁻¹. The “self-cleavage kobs at 10000 uM GlcN6P” value with glucosamine-6-phosphate [4] is below 1e-05 s⁻¹.

In the case of A36U U69G, the “self-cleavage kobs at 40 uM GlcN6P” value with glucosamine-6-phosphate [5] stood at 3.66e-05 ± 8.9e-06 s⁻¹. For the same variant, the “self-cleavage kobs at 160 uM GlcN6P” value with glucosamine-6-phosphate [1] was determined as 0.000214 ± 3.9e-05 s⁻¹. In addition, in the data set with glucosamine-6-phosphate [2], the “self-cleavage kobs at 640 uM GlcN6P” value stood at 0.000283 ± 5.8e-05 s⁻¹. The “self-cleavage kobs at 2500 uM GlcN6P” value with glucosamine-6-phosphate [3] was 9.73e-05 ± 2.3e-05 s⁻¹. For the same variant, the “self-cleavage kobs at 10000 uM GlcN6P” value in the data set with glucosamine-6-phosphate [4] was 0.000107 ± 4.1e-05 s⁻¹.

As for A12U U54A U69A, the “self-cleavage kobs at 40 uM GlcN6P” value in the data set with glucosamine-6-phosphate [5] amounted to 0.000126 ± 4.4e-05 s⁻¹. Moreover, the “self-cleavage kobs at 160 uM GlcN6P” value with glucosamine-6-phosphate [1] was 0.000159 ± 4.6e-05 s⁻¹. Also, in the data set with glucosamine-6-phosphate [2], the “self-cleavage kobs at 640 uM GlcN6P” value is 0.000125 ± 2.7e-05 s⁻¹. Further, the “self-cleavage kobs at 2500 uM GlcN6P” value in the data set with glucosamine-6-phosphate [3] was 0.000458 ± 9.4e-05 s⁻¹. For the same variant, the “self-cleavage kobs at 10000 uM GlcN6P” value in the data set with glucosamine-6-phosphate [4] turned out to be 0.000322 ± 6.8e-05 s⁻¹.

On to A15C A36G G38U, for which the “self-cleavage kobs at 160 uM GlcN6P” value in the data set with glucosamine-6-phosphate [1] is below 1e-05 s⁻¹. The “self-cleavage kobs at 2500 uM GlcN6P” value in the data set with glucosamine-6-phosphate [3] is below 1e-05 s⁻¹.

Consider A36G U56G, for which the “self-cleavage kobs at 40 uM GlcN6P” value with glucosamine-6-phosphate [5] is below 1e-05 s⁻¹. In addition, the “self-cleavage kobs at 640 uM GlcN6P” value in the data set with glucosamine-6-phosphate [2] is below 1e-05 s⁻¹.

As to C11G G29A U49G U69G, the “self-cleavage kobs at 40 uM GlcN6P” value in the data set with glucosamine-6-phosphate [5] is 4.27e-05 ± 1.7e-05 s⁻¹.

G7A G37U: the “self-cleavage kobs at 160 uM GlcN6P” value in the data set with glucosamine-6-phosphate [1] was below 1e-05 s⁻¹. The “self-cleavage kobs at 640 uM GlcN6P” value with glucosamine-6-phosphate [2] was below 1e-05 s⁻¹. In addition, the “self-cleavage kobs at 2500 uM GlcN6P” value with glucosamine-6-phosphate [3] was below 1e-05 s⁻¹. Further, the “self-cleavage kobs at 10000 uM GlcN6P” value in the data set with glucosamine-6-phosphate [4] is below 1e-05 s⁻¹.

With C50G G51A, the “self-cleavage kobs at 160 uM GlcN6P” value with glucosamine-6-phosphate [1] is below 1e-05 s⁻¹. Moreover, in the data set with glucosamine-6-phosphate [4], the “self-cleavage kobs at 10000 uM GlcN6P” value was below 1e-05 s⁻¹.

Regarding G7A U69G, the “self-cleavage kobs at 40 uM GlcN6P” value in the data set with glucosamine-6-phosphate [5] was determined as 0.000261 ± 4.3e-05 s⁻¹. Also, the “self-cleavage kobs at 640 uM GlcN6P” value with glucosamine-6-phosphate [2] is 7.58e-05 ± 3.5e-05 s⁻¹. The “self-cleavage kobs at 10000 uM GlcN6P” value in the data set with glucosamine-6-phosphate [4] was determined as 0.000569 ± 0.00011 s⁻¹.

In the case of G37C G43C A52C, in the data set with glucosamine-6-phosphate [1], the “self-cleavage kobs at 160 uM GlcN6P” value was below 1e-05 s⁻¹. Also, the “self-cleavage kobs at 2500 uM GlcN6P” value with glucosamine-6-phosphate [3] was below 1e-05 s⁻¹.
